# Measurements as given in US20090081238A1 (Genentech, published 2009).
# T1: human Notch2 NRR (human, UniProt Q04721 1425-1677)
# T1 construct: domain: NRR; Construct not described; also called human NRR2
# T1 sequence (looked up): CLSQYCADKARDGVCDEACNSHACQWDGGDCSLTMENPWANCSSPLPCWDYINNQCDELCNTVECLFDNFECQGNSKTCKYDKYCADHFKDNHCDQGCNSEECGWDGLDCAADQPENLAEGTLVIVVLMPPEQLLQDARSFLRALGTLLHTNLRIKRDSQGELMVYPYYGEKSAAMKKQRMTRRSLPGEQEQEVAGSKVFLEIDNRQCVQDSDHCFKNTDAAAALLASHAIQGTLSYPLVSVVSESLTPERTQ
# T2: murine Notch2 NRR (mouse, UniProt O35516 1425-1679)
# T2 construct: domain: NRR; Construct not described; also called mouse NRR2
# T2 sequence (looked up): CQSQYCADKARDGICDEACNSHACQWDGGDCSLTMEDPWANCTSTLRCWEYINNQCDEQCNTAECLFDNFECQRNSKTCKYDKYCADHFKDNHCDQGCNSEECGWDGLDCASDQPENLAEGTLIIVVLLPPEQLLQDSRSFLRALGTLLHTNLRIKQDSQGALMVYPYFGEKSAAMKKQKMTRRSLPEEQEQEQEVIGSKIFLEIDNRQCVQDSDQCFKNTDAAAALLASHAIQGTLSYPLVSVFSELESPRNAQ
# T3: human Notch4 NRR (human, UniProt Q99466 1172-1447, limits assumed)
# T3 construct: domain: NRR; Construct not described; also called human NRR4
# T3 sequence (looked up): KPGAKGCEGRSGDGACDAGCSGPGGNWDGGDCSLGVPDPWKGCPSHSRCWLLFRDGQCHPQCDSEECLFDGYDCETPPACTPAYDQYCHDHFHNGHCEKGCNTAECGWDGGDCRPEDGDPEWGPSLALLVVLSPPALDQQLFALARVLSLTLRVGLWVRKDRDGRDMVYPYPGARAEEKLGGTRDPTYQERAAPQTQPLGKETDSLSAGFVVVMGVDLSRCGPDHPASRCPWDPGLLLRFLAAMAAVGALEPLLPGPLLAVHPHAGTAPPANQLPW
# T4: murine Notch4 NRR (mouse, UniProt P31695 1168-1443, limits assumed)
# T4 construct: domain: NRR; Construct not described; also called mouse NRR4
# T4 sequence (looked up): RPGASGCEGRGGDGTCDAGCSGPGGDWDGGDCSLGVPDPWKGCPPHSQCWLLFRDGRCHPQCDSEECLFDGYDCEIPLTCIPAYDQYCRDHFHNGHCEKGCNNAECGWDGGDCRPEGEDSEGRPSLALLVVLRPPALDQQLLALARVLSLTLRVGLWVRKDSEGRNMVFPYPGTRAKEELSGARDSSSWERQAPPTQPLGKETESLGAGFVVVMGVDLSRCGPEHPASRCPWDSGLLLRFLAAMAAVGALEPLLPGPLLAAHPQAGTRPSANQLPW
# How the values were obtained:
# [1] = biological target: human Notch1 (on NIH-3T3 cells) (human, UniProt P46531 19-2555); test: cell-based or functional assay
# human Notch2 NRR = biological target: T1, human Notch2 NRR; test: cross-reactivity test of the IgG (method not detailed)
# murine Notch2 NRR = biological target: T2, murine Notch2 NRR; test: as above
# human Notch3 NRR = biological target: T5, human Notch3 NRR (human, UniProt Q9UM47 1378-1643, limits assumed); test: as above
# T5 construct: domain: NRR; Construct not described; also called human NRR3
# T5 sequence (Q9UM47 1378-1643 limits assumed): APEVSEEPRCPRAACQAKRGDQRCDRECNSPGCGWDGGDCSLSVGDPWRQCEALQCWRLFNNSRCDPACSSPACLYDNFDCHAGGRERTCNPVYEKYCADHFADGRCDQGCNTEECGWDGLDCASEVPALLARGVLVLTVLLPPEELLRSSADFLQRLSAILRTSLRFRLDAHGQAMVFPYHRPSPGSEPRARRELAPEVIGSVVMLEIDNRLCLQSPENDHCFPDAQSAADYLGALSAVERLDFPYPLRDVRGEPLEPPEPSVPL
# murine Notch3 NRR = biological target: T6, murine Notch3 NRR (mouse, UniProt Q61982 1379-1643, limits assumed); test: as above
# T6 construct: domain: NRR; Construct not described; also called mouse NRR3
# T6 sequence (Q61982 1379-1643 limits assumed): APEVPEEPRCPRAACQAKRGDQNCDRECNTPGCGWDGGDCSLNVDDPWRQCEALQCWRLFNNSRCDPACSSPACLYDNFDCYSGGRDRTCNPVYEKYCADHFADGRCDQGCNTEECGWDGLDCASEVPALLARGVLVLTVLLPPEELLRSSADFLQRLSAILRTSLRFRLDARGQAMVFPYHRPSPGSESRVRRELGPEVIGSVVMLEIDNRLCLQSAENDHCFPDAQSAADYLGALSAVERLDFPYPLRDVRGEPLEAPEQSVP
# human Notch4 NRR = biological target: T3, human Notch4 NRR; test: as above
# murine Notch4 NRR = biological target: T4, murine Notch4 NRR; test: as above
# [2] = biological target: T7, hFLAG-EGF34+NRR-His6 (101V), the human Notch1 NRR immunogen (Notch1 V1307-Q1733) (human, UniProt P46531 1307-1733); test: SPR (BIAcore-3000), IgG captured by anti-human IgG, NRR1-ECD injected 3.9-500 nM, 25 C
# T7 construct: also called hNotch1 NRR; human NRR1
# Procedure: (§1) To further characterize the binding affinity and binding kinetics of the anti-Notch1 NRR Mabs, surface plasmon resonance (SRP) measurement with a BIAcore™-3000 was used (BIAcore, Inc., Piscataway, N.J.). Briefly, carboxymethylated dextran biosensor chips (CM5, BIAcore Inc.) were activated with N-ethyl-N′-(3-dimethylaminopropyl)-carbodiimide hydrochloride (EDC) and N-hydroxysuccinimide (NHS) according to the supplier's instructions. Rabbit anti human antibody (Pierce) was diluted with 100 mM sodium acetate, pH 4.8, into 20 μg/ml before injection at a flow rate of 5 μl/minute to achieve approximately 3000 response units (RU) of coupled antibody. Next, 1M ethanolamine was injected to block unreacted groups. Anti-NRR1 mab (formatted as a full-length IgG) was captured by rabbit anti-human IgG coated on the chips to achieve approximately 200 response units (RU). For kinetics measurements, two-fold serial dilutions of human NRR1-ECD or murine NRR1-ECD proteins (3.9 nM to 500 nM) were injected in PBT buffer (PBS with 0.05% Tween 20) at 25° C. with a flow rate of 30 μl/min. Association rates (kₒₙ) and dissociation rates (koff) were calculated using a simple one-to-one Langmuir binding model (BIAcore Evaluation Software version 3.2). The equilibrium dissociation constant (KD) was calculated as the ratio koff/kₒₙ.
# [3] = biological target: T8, mFLAG-EGF34+NRR-His6, the mouse Notch1 NRR immunogen (Notch1 V1307-Q1723) (mouse, UniProt Q01705 1307-1723); test: as above
# T8 construct: the rest carries an N-terminal FLAG tag and a C-terminal His tag; also called mNotch1 NRR; murine NRR1
# T8 sequence (Q01705 other isoform, or with tags, fused parts or gaps): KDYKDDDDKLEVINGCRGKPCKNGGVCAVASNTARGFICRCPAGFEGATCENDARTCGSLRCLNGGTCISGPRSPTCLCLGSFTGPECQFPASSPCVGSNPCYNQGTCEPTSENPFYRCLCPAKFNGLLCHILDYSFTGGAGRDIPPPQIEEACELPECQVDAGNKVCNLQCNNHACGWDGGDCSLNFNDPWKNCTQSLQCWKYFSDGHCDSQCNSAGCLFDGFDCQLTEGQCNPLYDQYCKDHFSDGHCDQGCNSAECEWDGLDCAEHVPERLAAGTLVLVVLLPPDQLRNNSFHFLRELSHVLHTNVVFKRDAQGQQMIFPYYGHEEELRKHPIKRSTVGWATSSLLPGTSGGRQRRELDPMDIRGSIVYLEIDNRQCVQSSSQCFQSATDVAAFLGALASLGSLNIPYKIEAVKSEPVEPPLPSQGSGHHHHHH
# Procedure: as §1
# [4] = biological target: mEGF34+NRR-L1597H-FLAG-TEV-Fc (mouse) (UniProt Q01705); test: ELISA, target coated on the plate at 1 ug/ml, IgG titrated in 3-fold steps, detected with peroxidase anti-human Fab; A630
# Chain of mEGF34+NRR-L1597H-FLAG-TEV-Fc (mouse) (Q01705 1307-1723, stated change not applied): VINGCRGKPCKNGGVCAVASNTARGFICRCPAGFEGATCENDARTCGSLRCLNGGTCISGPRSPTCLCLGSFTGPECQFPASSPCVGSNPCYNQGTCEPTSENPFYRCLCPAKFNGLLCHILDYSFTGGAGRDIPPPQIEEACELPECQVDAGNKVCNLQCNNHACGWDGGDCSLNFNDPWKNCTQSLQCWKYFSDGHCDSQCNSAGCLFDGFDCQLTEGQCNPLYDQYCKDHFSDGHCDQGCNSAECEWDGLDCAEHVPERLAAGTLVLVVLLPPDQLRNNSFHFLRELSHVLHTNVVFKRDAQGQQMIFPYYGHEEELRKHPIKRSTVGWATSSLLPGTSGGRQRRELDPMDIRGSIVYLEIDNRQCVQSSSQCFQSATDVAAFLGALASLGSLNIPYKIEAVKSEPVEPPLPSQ
# [5] = biological target: T7, hFLAG-EGF34+NRR-His6 (101V), the human …; test: as above
# Procedure: (§2) 1 μg/ml of proteins in PBS, pH 7.4, were coated on ELISA plates (Nunc Maxisorp) at 4° C. overnight. Plates were blocked with Casein blocker in PBS (phosphate buffered saline; Pierce) for one hour at room temperature. Serial 3-fold dilutions of anti Notch1 NRR IgGs or irrelevant IgG in PBST buffer (PBT buffer (PBS+0.05% (v/v) Tween 20) with 0.5% (w/v) BSA) were added to the plates and incubated for one hour at room temperature. The plates were then washed with PBST and bound antibodies were detected with peroxidase-conjugated goat anti human Fab specific IgG (Sigma). TMB substrate (3,3′,5,5′-etramethylbenzidine) was used and absorbance at 650 nm was read using a standard ELISA plate reader. Absorbance was plotted against concentrations of IgGs using KaleidaGraph (Synergy Software).
# [6] = biological target: T8, mFLAG-EGF34+NRR-His6, the mouse Notch1 …; test: as above
# Procedure: as §2
# hFLAG-NRR-His6 (102V) = biological target: T9, hFLAG-NRR-His6 (102V) (human, UniProt P46531 1447-1733); test: as above
# T9 construct: no EGF-like repeats; not shown: FLAG tag; thrombin cleavage site and HIS tag
# Procedure: as §2
binder,measurement,setting,value
"Antibody A (antibody, V domains shown, Tested as full-length human IgG1 (hIgG1) made in CHO cells; also called anti-Notch1 NRR Antibody A; Antibody A-hIgG1) VH: EVQLVESGGGLVQPGGSLRLSCAASGFTFSSYWIHWVRQAPGKGLEWVARINPSNGSTNYADSVKGRFTISADTSKNTAYLQMNSLRAEDTAVYYCARGSGFRWVMDYWGQGTLVTVSS VL: DIQMTQSPSSLSASVGDRVTITCRASQDVSTAVAWYQQKPDGTVKLLIYSASFLYSGVPSRFSGSGSGTDFTLTISSLQPEDFATYYCQQSYTTPPTFGQGTKVEIKR","Co-culture blocking, IC50",[1],~0.1 µg/mL
same,binding result,human Notch2 NRR,no binding
same,binding result,murine Notch2 NRR,no binding
same,binding result,human Notch3 NRR,no binding
same,binding result,murine Notch3 NRR,no binding
same,binding result,human Notch4 NRR,no binding
same,binding result,murine Notch4 NRR,no binding
same,Kd,[2],134 nM
same,koff,[2],0.011 s⁻¹
same,kon,[2],82000 M⁻¹ s⁻¹
same,Kd,[3],231 nM
same,koff,[3],0.021 s⁻¹
same,kon,[3],91000 M⁻¹ s⁻¹
same,EC50 (read off the curve),[4],0.04 µg/mL
same,EC50 (read off the curve),[5],~0.07 µg/mL
same,EC50 (read off the curve),[6],~0.05 µg/mL
same,EC50 (read off the curve),hFLAG-NRR-His6 (102V),~0.07 µg/mL
